Assay results: patent US20240384250A1, “FIBROBLAST GROWTH FACTOR 23 MODULATING COMPOUNDS” (THE UAB RESEARCH FOUNDATION, priority 2021, published 2024)
Entries after “also recorded” stand apart in the source; their conditions may differ.

Tests used:
[1] = test system: FGF21 binding to FGFR isoforms 1c, 2c, 3c, 4; assay: Pull-down and plate binding of FGF21 to FGFR isoforms with sKL or heparin; design: species or system human
Method: To study the interaction between Fc-tagged FGFR isoforms (Fc-FGFR), FGF isoforms, and sKL, immunoprecipitation studies were conducted. Protein A beads (6501, BioVision) and protein G beads (6511, BioVision) were used at 25 μl of a 50% stock slurry per sample in a total bead volume of 50 μl. Beads were washed 5× in activity buffer (50 mM Tris [pH 7.4], 200 mM NaCl, 0.01% Tween 20). Bead spin-down assays were all performed for 2 minutes at 5000 g. Beads were resuspended in 1 ml of activity buffer in a 1.5-ml snap cap tube. One microgram of Fc-FGFR1 to 4 was incubated with the beads for 1 hour on a bead rotator. Control samples were incubated with 2 μg of anti-FGF antibody instead of Fc-FGFR. […] Samples were analyzed using SDS-PAGE and Western blotting.
Proteins were coated on 96-well plates (MaxiSorp; 439454, Thermo Fisher Scientific), and proteins were added to wells in 100 μl of enzyme-linked immunosorbent assay (ELISA) coating buffer (E107, Bethyl Laboratories) with a lid placed overtop and incubated at 4° C. overnight. […] Reactions were stopped with ELISA stop solution (E115, Bethyl Laboratories) and analyzed using the Synergy HI plate reader (BioTek) at 450 nm wavelength. […] As a control to remove background absorbance values, wells were coated with an equal amount of BSA to match the amount of protein coated in experimental wells and treated the same as experimental wells. […]

[2] = target: T1, FGFR2c (Homo sapiens, UniProt P21802); assay: Pull-down of FLAG-sKL with Fc-tagged FGFR on protein A/G beads, absence of FGF23; type: binding
T1 construct: Fc-coupled FGFR ectodomains were immobilized on protein A/G beads; purchased R&D Systems 712FR050
T1 sequence (P21802 22-377 limits assumed): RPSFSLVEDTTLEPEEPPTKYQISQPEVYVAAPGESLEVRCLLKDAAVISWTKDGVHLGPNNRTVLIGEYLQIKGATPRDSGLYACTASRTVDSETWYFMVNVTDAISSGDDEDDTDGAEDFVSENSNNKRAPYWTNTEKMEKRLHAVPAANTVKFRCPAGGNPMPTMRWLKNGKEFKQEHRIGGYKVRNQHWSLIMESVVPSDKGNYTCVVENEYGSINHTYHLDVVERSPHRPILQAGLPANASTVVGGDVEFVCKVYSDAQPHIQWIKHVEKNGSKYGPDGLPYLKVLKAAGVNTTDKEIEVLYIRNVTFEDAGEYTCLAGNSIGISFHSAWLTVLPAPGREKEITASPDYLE
Method: (§1) To study the interaction between Fc-tagged FGFR isoforms (Fc-FGFR), FGF isoforms, and sKL, immunoprecipitation studies were conducted. Protein A beads (6501, BioVision) and protein G beads (6511, BioVision) were used at 25 μl of a 50% stock slurry per sample in a total bead volume of 50 μl. Beads were washed 5× in activity buffer (50 mM Tris [pH 7.4], 200 mM NaCl, 0.01% Tween 20). Bead spin-down assays were all performed for 2 minutes at 5000 g. Beads were resuspended in 1 ml of activity buffer in a 1.5-ml snap cap tube. One microgram of Fc-FGFR1 to 4 was incubated with the beads for 1 hour on a bead rotator. Control samples were incubated with 2 μg of anti-FGF antibody instead of Fc-FGFR. Beads were then pelleted at 5000 g for 2 minutes and washed 5× with activity buffer. Beads were resuspended and incubated with different combinations of 500 ng of FGF, 1 μg of sKL, 1.6 United States Pharmacopeia (USP) units of heparin, or phosphate-buffered saline (PBS). Beads were incubated for 1 hour on a tube rotator, and beads were pelleted and washed as before. One hundred microliters of 1× Laemmli sample buffer (1610737, Bio-Rad) with 1.42 M 2-mercaptoethanol was added, and samples were boiled for 5 minutes. Samples were analyzed using SDS-PAGE and Western blotting.
(§2) The sample (20 μl) was loaded onto Mini-PROTEAN TGX Precast Gel 4-20% for experiments with <9 samples (4568094, Bio-Rad) or Criterion TGX Precast Gel 4-20% (5678094, Bio-Rad) for experiments with >9 samples. Gels were run in 1× Tris/Glycine/SDS buffer (1610732, Bio-Rad) at 150 V and stopped when the sample dye reached the end of the gel. Gels were removed and electrotransferred via a semi-dry cassette (1703940, Bio-Rad) in I× Tris/Glycine buffer (1610734, Bio-Rad) with 20% methanol. Gels were transferred onto polyvinylidene diflouride membranes (IPVH00010, Millipore) at 20 V for 1 hour. Membranes were then blocked in 5% dried milk with 0.5% Tween 20 diluted in Tris-buffered saline (TBST; pH 7.5) for 1 hour and probed with antibodies against specific antigens at 1:1000 in TBST with 5% dried milk. Blots were washed 3× for 5 minutes in TBST and probed with HRP-coupled secondary antibodies against specific species at 1:10,000 in TBST with 5% dried milk. Membranes were imaged on the SRX-101A X-ray film developer (Konica Minolta).

[3] = target: T2, FGFR4 (Homo sapiens, UniProt P22455); assay: as above; type: binding; settings: listed as FLAG-sKL
T2 construct: Fc-FGFR4 protein (human ectodomain) was immobilized; purchased R&D Systems 685FR050
T2 sequence (P22455 22-369 limits assumed): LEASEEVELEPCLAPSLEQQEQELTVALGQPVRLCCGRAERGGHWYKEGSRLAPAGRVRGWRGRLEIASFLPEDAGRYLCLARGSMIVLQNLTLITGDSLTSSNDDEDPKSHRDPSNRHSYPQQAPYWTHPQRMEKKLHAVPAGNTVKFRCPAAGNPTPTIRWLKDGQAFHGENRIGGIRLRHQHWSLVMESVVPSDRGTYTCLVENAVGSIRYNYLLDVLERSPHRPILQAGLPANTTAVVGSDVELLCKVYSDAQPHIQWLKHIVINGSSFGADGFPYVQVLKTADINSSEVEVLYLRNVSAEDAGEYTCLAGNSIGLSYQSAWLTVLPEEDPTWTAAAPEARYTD
Method: as §1, §2

[4] = target: T3, FGFR3c (Homo sapiens, UniProt P22607); assay: as above; type: binding
T3 construct: Fc-coupled FGFR ectodomains were immobilized on protein A/G beads; purchased R&D Systems 766FR050
T3 sequence (P22607 23-375 limits assumed): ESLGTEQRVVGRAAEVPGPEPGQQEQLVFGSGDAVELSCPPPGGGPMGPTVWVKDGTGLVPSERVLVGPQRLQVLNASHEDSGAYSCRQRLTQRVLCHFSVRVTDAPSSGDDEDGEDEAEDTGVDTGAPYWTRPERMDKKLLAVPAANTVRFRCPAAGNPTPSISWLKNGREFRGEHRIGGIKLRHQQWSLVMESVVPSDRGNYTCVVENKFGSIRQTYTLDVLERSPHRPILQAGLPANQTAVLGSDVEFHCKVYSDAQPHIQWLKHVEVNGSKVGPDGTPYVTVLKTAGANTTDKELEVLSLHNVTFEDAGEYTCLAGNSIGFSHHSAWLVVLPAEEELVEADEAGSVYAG
Method: as §1, §2

sKL binding to FGFR2c [2]: no sKL binding
sKL binding to FGFR3c [4]: no sKL binding
B1: sKL: recombinant soluble α-klotho ectodomain, mouse aa 35-982 and human aa 34-981, FLAG- or Strep/His-tagged, purified from HEK293 cells (protein)
chain: EPGDGAQTWARFSRPPAPEAAGLFQGTFPDGFLWAVGSAAYQTEGGWQQHGKGASIWDTFTHHPLAPPGDSRNASLPLGAPSPLQPATGDVASDSYNNVFRDTEALRELGVTHYRFSISWARVLPNGSAGVPNREGLRYYRRLLERLRELGVQPVVTLYHWDLPQRLQDAYGGWANRALADHFRDYAELCFRHFGGQVKYWITIDNPYVVAWHGYATGRLAPGIRGSPRLGYLVAHNLLLAHAKVWHLYNTSFRPTQGGQVSIALSSHWINPRRMTDHSIKECQKSLDFVLGWFAKPVFIDGDYPESMKNNLSSILPDFTESEKKFIKGTADFFALCFGPTLSFQLLDPHMKFRQLESPNLRQLLSWIDLEFNHPQIFIVENGWFVSGTTKRDDAKYMYYLKKFIMETLKAIKLDGVDVIGYTAWSLMDGFEWHRGYSIRRGLFYVDFLSQDKMLLPKSSALFYQKLIEKNGFPPLPENQPLEGTFPCDFAWGVVDNYIQVDTTLSQFTDLNVYLWDVHHSKRLIKVDGVVTKKRKSYCVDFAAIQPQIALLQEMHVTHFRFSLDWALILPLGNQSQVNHTILQYYRCMASELVRVNITPVVALWQPMAPNQGLPRLLARQGAWENPYTALAFAEYARLCFQELGHHVKLWITMNEPYTRNMTYSAGHNLLKAHALAWHVYNEKFRHAQNGKISIALQADWIEPACPFSQKDKEVAERVLEFDIGWLAEPIFGSGDYPWVMRDWLNQRNNFLLPYFTEDEKKLIQGTFDFLALSHYTTILVDSEKEDPIKYNDYLEVQEMTDITWLNSPSQVAVVPWGLRKVLNWLKFKYGDLPMYIISNGIDDGLHAEDDQLRVYYMQNYINEALKAHILDGINLCGYFAYSFNDRTAPRFGLYRYAADQFEPKASMKHYRKIIDSNGFPGPETLERFCPEEFTVCTECSFFHTRKS
modifications: left off: small tags and cut ends
notes: recombinant soluble α-klotho ectodomain, mouse aa 35-982 and human aa 34-981, FLAG- or Strep/His-tagged, purified from HEK293 cells
binding of FGF21 to any of the FGFR isoforms [1]: did not mediate binding; also recorded: did not lead to complex formation; also recorded: did not bind any of the FGFR isoforms
co-precipitation of FLAG-sKL with FGFR4 [3]: to a lower extent with FGFR4; also recorded: bound to FGFR4 and to a lower extent to FGFR4
